Data reported in publication PMC10786891, “Massively parallel profiling of RNA-targeting CRISPR-Cas13d”.

T1: EsCas13d, nuclease-dead (Eubacterium siraeum, UniProt B0MS50, R295A;H300A;R849A;H854A)
T1 sequence: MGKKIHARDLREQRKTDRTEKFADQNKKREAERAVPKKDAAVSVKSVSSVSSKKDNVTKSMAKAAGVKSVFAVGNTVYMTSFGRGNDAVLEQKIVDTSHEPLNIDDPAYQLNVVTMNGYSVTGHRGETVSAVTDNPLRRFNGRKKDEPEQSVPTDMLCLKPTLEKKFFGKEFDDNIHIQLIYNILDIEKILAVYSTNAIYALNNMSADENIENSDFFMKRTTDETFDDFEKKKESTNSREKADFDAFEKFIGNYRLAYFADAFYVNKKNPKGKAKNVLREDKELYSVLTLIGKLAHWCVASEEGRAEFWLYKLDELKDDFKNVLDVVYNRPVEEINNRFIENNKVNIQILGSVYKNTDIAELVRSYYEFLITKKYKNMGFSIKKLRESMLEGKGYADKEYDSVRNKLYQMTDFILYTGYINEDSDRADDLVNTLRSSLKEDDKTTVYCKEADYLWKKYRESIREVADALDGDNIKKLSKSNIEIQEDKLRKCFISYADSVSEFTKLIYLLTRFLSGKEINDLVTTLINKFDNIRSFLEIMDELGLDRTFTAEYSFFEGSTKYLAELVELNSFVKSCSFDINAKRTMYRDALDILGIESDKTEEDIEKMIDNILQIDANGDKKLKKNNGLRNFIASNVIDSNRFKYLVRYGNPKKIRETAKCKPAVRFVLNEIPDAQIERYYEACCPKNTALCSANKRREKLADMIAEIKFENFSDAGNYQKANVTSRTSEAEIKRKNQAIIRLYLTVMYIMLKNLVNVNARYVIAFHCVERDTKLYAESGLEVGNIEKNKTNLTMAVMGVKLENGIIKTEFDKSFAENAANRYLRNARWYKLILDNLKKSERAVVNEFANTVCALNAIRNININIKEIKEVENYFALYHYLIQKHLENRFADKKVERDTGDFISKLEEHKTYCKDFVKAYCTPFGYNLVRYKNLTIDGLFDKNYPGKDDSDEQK

B1: crRNA-2 (D950N) target (mixed)
RNA 1: CACCCGUGCAAAAUUGCAGGGGUCUAAAACCUUGAAGUUUUCCAAGUGCACU
RNA 2: UCCACAGCAAGUGCACUUGGAAAACUUCAAAAUGUGGUCA
B2: crRNA-1 (D950N) target (mixed)
RNA 1: CACCCGUGCAAAAUUGCAGGGGUCUAAAACUUUUGGUUGACCACAUCUUGAA
RNA 2: UUGGAAAACUUCAAAAUGUGGUCAACCAAAAUGCACAAGC

Target: T1, EsCas13d, nuclease-dead
Test: BLI; crRNA (strand 1, pre-loaded); Mg2+; 40 mM Tris-HCl pH 7.5, 150 mM NaCl, 6 mM MgCl2, 1 mM DTT, 0.1% Tween-20, 0.2 mg/ml BSA; temperature not stated
Conditions: tags: His6-TwinStrep-SUMO cleaved; label: 3' biotin on strand 2

Binder	Kd [nM]
B1	2.9
B2	15
